Results: PMC12687424 (2025)
FAM = fluorescein label

Molecular target: WT PKCβII catalytic domain (UniProt P05771-2 321-673, primed (phosphorylated) at the three PKC priming sites (T-loop, turn motif, hydrophobic motif))
Assay: FP; representative curve

Chain of WT PKCβII catalytic domain (P05771 other isoform, or with tags, fused parts or gaps): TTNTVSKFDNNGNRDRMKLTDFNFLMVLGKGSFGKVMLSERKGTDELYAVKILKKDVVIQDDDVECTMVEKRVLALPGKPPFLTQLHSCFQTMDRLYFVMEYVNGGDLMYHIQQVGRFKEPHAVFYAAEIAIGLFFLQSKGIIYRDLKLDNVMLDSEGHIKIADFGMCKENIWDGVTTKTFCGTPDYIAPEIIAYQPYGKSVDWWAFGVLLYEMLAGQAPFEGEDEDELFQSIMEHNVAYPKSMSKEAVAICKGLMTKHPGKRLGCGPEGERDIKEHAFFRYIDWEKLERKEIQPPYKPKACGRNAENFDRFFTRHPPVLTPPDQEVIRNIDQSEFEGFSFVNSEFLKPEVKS

In the case of {FAM}-ESTVRFARKGSLRQKNVH-NH2 [Fluorescein-PSS peptide], the Kd is reported as 39 µM.
